Test results reported in PMC8010706.

T1: MBP-Sbh1 full length, P52870
T1 chain: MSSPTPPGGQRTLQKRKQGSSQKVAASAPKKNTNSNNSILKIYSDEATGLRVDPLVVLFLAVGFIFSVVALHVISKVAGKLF


molecular target: MBP-Sbh1 full length (UniProt P52870); test: pull-down (Ni-NTA capture after coexpression, Coomassie quantification); conditions: experiments performed 3 to 4 times; parent: 1

His-tagged hSgt2-C (hSgt2 213-313), sequence (O43765 213-313, change not shown): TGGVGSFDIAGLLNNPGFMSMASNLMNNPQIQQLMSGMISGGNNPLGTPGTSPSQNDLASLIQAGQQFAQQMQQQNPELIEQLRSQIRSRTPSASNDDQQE
His-tagged ySgt2-C (ySgt2 222-346), sequence (Q12118 222-346, change not shown): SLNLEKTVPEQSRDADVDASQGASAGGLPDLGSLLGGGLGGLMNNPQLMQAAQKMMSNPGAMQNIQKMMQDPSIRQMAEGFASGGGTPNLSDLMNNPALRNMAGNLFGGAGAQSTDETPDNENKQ

Molecule | ratio to parent
His-tagged ySgt2-C (ySgt2 222-346) (from UniProt Q12118) H1A | 0.03
His-tagged hSgt2-C (hSgt2 213-313) (from UniProt O43765) H2/3A | 0.27
His-tagged ySgt2-C (ySgt2 222-346) (from UniProt Q12118) H2A | 0.1
His-tagged ySgt2-C (ySgt2 222-346) (from UniProt Q12118) H3A | 0.19
His-tagged hSgt2-C (hSgt2 213-313) (from UniProt O43765) H5A | 0.67
His-tagged ySgt2-C (ySgt2 222-346) (from UniProt Q12118) H4A | 0.27
His-tagged hSgt2-C (hSgt2 213-313) (from UniProt O43765) H4A | 0.55
His-tagged ySgt2-C (ySgt2 222-346) (from UniProt Q12118) H5A | 0.32
His-tagged hSgt2-C (hSgt2 213-313) (from UniProt O43765) H0A | 0.63
His-tagged hSgt2-C (hSgt2 213-313) (from UniProt O43765) H1A | 0.21

Molecular target: T1, MBP-Sbh1 full length, P52870
Test: as above
Conditions: chain shown with the change; capture assay repeated three times; parent: 1

Molecule | ratio to parent
His-tagged ySgt2-C (ySgt2 222-346), Q12118 M315D (protein) SLNLEKTVPEQSRDADVDASQGASAGGLPDLGSLLGGGLGGLMNNPQLMQAAQKMMSNPGAMQNIQKMMQDPSIRQMAEGFASGGGTPNLSDLDNNPALRNMAGNLFGGAGAQSTDETPDNENKQ | 0.34
His-tagged ySgt2-C (ySgt2 222-346), Q12118 M277D (protein) SLNLEKTVPEQSRDADVDASQGASAGGLPDLGSLLGGGLGGLMNNPQLMQAAQKMDSNPGAMQNIQKMMQDPSIRQMAEGFASGGGTPNLSDLMNNPALRNMAGNLFGGAGAQSTDETPDNENKQ | 0.14
His-tagged hSgt2-C (hSgt2 213-313), O43765 L224D; F280D (protein) TGGVGSFDIAGDLNNPGFMSMASNLMNNPQIQQLMSGMISGGNNPLGTPGTSPSQNDLASLIQAGQQDAQQMQQQNPELIEQLRSQIRSRTPSASNDDQQE | 0.21
His-tagged hSgt2-C (hSgt2 213-313), O43765 L295D (protein) TGGVGSFDIAGLLNNPGFMSMASNLMNNPQIQQLMSGMISGGNNPLGTPGTSPSQNDLASLIQAGQQFAQQMQQQNPELIEQDRSQIRSRTPSASNDDQQE | 0.86
His-tagged hSgt2-C (hSgt2 213-313), O43765 L224D; L295D (protein) TGGVGSFDIAGDLNNPGFMSMASNLMNNPQIQQLMSGMISGGNNPLGTPGTSPSQNDLASLIQAGQQFAQQMQQQNPELIEQDRSQIRSRTPSASNDDQQE | 0.16
His-tagged hSgt2-C (hSgt2 213-313), O43765 F280D (protein) TGGVGSFDIAGLLNNPGFMSMASNLMNNPQIQQLMSGMISGGNNPLGTPGTSPSQNDLASLIQAGQQDAQQMQQQNPELIEQLRSQIRSRTPSASNDDQQE | 0.69
His-tagged hSgt2-C (hSgt2 213-313), O43765 M247D (protein) TGGVGSFDIAGLLNNPGFMSMASNLMNNPQIQQLDSGMISGGNNPLGTPGTSPSQNDLASLIQAGQQFAQQMQQQNPELIEQLRSQIRSRTPSASNDDQQE | 0.68
His-tagged hSgt2-C (hSgt2 213-313), O43765 M233D; F280D (protein) TGGVGSFDIAGLLNNPGFMSDASNLMNNPQIQQLMSGMISGGNNPLGTPGTSPSQNDLASLIQAGQQDAQQMQQQNPELIEQLRSQIRSRTPSASNDDQQE | 0.59
His-tagged hSgt2-C (hSgt2 213-313), O43765 M233D; L295D (protein) TGGVGSFDIAGLLNNPGFMSDASNLMNNPQIQQLMSGMISGGNNPLGTPGTSPSQNDLASLIQAGQQFAQQMQQQNPELIEQDRSQIRSRTPSASNDDQQE | 0.44
His-tagged hSgt2-C (hSgt2 213-313), O43765 L224D (protein) TGGVGSFDIAGDLNNPGFMSMASNLMNNPQIQQLMSGMISGGNNPLGTPGTSPSQNDLASLIQAGQQFAQQMQQQNPELIEQLRSQIRSRTPSASNDDQQE | 0.71
His-tagged ySgt2-C (ySgt2 222-346), Q12118 L320D (protein) SLNLEKTVPEQSRDADVDASQGASAGGLPDLGSLLGGGLGGLMNNPQLMQAAQKMMSNPGAMQNIQKMMQDPSIRQMAEGFASGGGTPNLSDLMNNPADRNMAGNLFGGAGAQSTDETPDNENKQ | 0.23
His-tagged ySgt2-C (ySgt2 222-346), Q12118 I286D (protein) SLNLEKTVPEQSRDADVDASQGASAGGLPDLGSLLGGGLGGLMNNPQLMQAAQKMMSNPGAMQNDQKMMQDPSIRQMAEGFASGGGTPNLSDLMNNPALRNMAGNLFGGAGAQSTDETPDNENKQ | 0.13
His-tagged ySgt2-C (ySgt2 222-346), Q12118 M290D (protein) SLNLEKTVPEQSRDADVDASQGASAGGLPDLGSLLGGGLGGLMNNPQLMQAAQKMMSNPGAMQNIQKMDQDPSIRQMAEGFASGGGTPNLSDLMNNPALRNMAGNLFGGAGAQSTDETPDNENKQ | 0.18
His-tagged ySgt2-C (ySgt2 222-346), Q12118 L327D (protein) SLNLEKTVPEQSRDADVDASQGASAGGLPDLGSLLGGGLGGLMNNPQLMQAAQKMMSNPGAMQNIQKMMQDPSIRQMAEGFASGGGTPNLSDLMNNPALRNMAGNDFGGAGAQSTDETPDNENKQ | 0.4
His-tagged ySgt2-C (ySgt2 222-346), Q12118 I295D (protein) SLNLEKTVPEQSRDADVDASQGASAGGLPDLGSLLGGGLGGLMNNPQLMQAAQKMMSNPGAMQNIQKMMQDPSDRQMAEGFASGGGTPNLSDLMNNPALRNMAGNLFGGAGAQSTDETPDNENKQ | 0.21
His-tagged ySgt2-C (ySgt2 222-346), Q12118 M323D (protein) SLNLEKTVPEQSRDADVDASQGASAGGLPDLGSLLGGGLGGLMNNPQLMQAAQKMMSNPGAMQNIQKMMQDPSIRQMAEGFASGGGTPNLSDLMNNPALRNDAGNLFGGAGAQSTDETPDNENKQ | 0.29

molecular target: hSgt2 M233D (Homo sapiens) (UniProt O43765); test: pull-down; capture assay: His-tagged Sgt2 construct coexpressed with MBP-Sbh1 in E. coli; lysate incubated in batch with Ni-NTA resin at 4 °C for 1 h, washed with 20 mM Tris, 150 mM NaCl, 25 mM imidazole, 10 mM BME, pH 7.5, eluted with 300 mM imidazole; Coomassie-stained gel, MBP-Sbh1/Sgt2 ratio normalised to wild type; conditions: not given

Molecule | percent reduction of binding relative to wild type [%]
MBP-Sbh1 full length (natural protein) MSSPTPPGGQRTLQKRKQGSSQKVAASAPKKNTNSNNSILKIYSDEATGLRVDPLVVLFLAVGFIFSVVALHVISKVAGKLF | 36
